B1: Chorion-specific transcription factor GCMb (Homo sapiens), O75603 (parent)
chain: MPAAAVQEAVGVCSYGMQLSWDINDPQMPQELALFDQFREWPDGYVRFIYSSDEKKAQRHLSGWAMRNTNNHNGHILKKSCLGVVVCTQACTLPDGSRLQLRPAICDKARLKQQKKACPNCHSALELIPCRGHSGYPVTNFWRLDGNAIFFQAKGVHDHPRPESKSETEARRSAIKRQMASFYQPQKKRIRESEAEENQDSSGHFSNIPPLENPEDFDIVTETSFPIPGQPCPSFPKSDVYKATCDLATFQGDKMPPFQKYSSPRIYLPRPPCSYELANPGYTNSSPYPTLYKDSTSIPNDTDWVHLNTLQCNVNSYSSYERSFDFTNKQHGWKPALGKPSLVERTNHGQFQAMATRPYYNPELPCRYLTTPPPGAPALQTVITTTTKVSYQAYQPPAMKYSDSVREVKSLSSCNYAPEDTGMSVYPEPWGPPVTVTRAASPSGPPPMKIAGDCRAIRPTVAIPHEPVSSRTDEAETWDVCLSGLGSAVSYSDRVGPFFTYNNEDF
partner: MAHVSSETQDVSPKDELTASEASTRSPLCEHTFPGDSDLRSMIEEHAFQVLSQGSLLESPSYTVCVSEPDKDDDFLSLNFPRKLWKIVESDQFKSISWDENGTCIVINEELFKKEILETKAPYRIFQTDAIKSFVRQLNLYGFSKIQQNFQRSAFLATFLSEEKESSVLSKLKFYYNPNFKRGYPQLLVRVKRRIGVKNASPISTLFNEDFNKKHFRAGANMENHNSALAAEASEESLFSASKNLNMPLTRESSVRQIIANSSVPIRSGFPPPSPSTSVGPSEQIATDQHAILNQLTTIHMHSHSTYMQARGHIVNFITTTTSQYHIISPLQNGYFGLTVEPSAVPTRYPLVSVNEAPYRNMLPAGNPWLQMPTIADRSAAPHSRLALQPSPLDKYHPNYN
B2: Ras-related protein Rab-39B (Homo sapiens), Q96DA2 (parent)
chain: MEAIWLYQFRLIVIGDSTVGKSCLIRRFTEGRFAQVSDPTVGVDFFSRLVEIEPGKRIKLQIWDTAGQERFRSITRAYYRNSVGGLLLFDITNRRSFQNVHEWLEETKVHVQPYQIVFVLVGHKCDLDTQRQVTRHEAEKLAAAYGMKYIETSARDAINVEKAFTDLTRDIYELVKRGEITIQEGWEGVKSGFVPNVVHSSEEVVKSERRCLC
partner: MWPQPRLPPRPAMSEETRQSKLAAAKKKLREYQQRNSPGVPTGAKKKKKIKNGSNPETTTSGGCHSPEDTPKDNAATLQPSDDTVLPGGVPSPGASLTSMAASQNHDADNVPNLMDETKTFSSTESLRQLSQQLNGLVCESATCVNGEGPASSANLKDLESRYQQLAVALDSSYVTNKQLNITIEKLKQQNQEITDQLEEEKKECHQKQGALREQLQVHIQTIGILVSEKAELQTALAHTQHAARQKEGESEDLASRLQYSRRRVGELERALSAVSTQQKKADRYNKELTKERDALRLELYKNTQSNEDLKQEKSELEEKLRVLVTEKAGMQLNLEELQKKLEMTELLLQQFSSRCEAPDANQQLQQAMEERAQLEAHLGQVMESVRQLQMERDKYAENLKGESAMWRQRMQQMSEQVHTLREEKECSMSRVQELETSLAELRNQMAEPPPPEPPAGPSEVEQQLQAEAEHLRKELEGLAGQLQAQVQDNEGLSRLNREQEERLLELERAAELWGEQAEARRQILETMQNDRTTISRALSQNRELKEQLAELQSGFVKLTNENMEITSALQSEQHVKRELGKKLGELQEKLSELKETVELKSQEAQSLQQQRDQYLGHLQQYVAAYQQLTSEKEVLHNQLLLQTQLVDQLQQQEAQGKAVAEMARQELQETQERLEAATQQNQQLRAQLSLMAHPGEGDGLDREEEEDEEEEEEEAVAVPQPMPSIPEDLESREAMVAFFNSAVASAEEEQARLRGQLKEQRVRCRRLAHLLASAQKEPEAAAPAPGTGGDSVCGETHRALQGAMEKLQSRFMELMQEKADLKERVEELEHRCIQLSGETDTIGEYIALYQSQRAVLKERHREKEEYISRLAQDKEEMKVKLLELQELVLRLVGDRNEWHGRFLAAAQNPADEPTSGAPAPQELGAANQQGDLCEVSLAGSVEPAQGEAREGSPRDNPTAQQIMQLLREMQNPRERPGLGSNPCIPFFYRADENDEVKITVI
B3: Four and a half LIM domains protein 2 (Homo sapiens), Q14192 (parent)
chain: MTERFDCHHCNESLFGKKYILREESPYCVVCFETLFANTCEECGKPIGCDCKDLSYKDRHWHEACFHCSQCRNSLVDKPFAAKEDQLLCTDCYSNEYSSKCQECKKTIMPGTRKMEYKGSSWHETCFICHRCQQPIGTKSFIPKDNQNFCVPCYEKQHAMQCVQCKKPITTGGVTYREQPWHKECFVCTACRKQLSGQRFTARDDFAYCLNCFCDLYAKKCAGCTNPISGLGGTKYISFEERQWHNDCFNCKKCSLSLVGRGFLTERDDILCPDCGKDI
partner: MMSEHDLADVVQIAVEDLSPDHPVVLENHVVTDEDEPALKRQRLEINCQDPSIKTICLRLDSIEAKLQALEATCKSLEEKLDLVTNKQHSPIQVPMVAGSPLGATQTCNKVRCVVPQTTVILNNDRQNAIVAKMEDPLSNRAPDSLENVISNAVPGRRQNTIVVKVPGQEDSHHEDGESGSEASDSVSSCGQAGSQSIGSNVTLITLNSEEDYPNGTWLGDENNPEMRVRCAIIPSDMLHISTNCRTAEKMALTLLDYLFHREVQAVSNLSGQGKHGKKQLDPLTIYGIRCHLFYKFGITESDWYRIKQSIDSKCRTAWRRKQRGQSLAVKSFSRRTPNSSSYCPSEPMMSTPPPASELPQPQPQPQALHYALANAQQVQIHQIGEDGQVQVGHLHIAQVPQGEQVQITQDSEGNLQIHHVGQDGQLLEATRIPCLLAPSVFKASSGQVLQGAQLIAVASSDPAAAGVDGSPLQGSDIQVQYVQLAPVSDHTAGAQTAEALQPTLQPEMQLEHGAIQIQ
B4: Uridine diphosphate glucose pyrophosphatase NUDT22 (Homo sapiens), Q9BRQ3 (parent)
chain: MDPEVTLLLQCPGGGLPQEQIQAELSPAHDRRPLPGGDEAITAIWETRLKAQPWLFDAPKFRLHSATLAPIGSRGPQLLLRLGLTSYRDFLGTNWSSSAAWLRQQGATDWGDTQAYLADPLGVGAALATADDFLVFLRRSRQVAEAPGLVDVPGGHPEPQALCPGGSPQHQDLAGQLVVHELFSSVLQEICDEVNLPLLTLSQPLLLGIARNETSAGRASAEFYVQCSLTSEQVRKHYLSGGPEAHESTGIFFVETQNVQRLLETEMWAELCPSAKGAIILYNRVQGSPTGAALGSPALLPPL
partner: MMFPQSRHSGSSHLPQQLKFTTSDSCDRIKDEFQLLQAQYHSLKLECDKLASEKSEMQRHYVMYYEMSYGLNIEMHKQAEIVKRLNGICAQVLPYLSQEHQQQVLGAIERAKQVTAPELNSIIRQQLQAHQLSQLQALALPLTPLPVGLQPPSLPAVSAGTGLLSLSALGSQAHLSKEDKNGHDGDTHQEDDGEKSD
B5: Tektin-4 (Homo sapiens), Q8WW24 (parent)
chain: MAQTVPPCELPCKEYDVARNTGAYTSSGLATASFRTSKYLLEEWFQNCYARYHQAFADRDQSERQRHESQQLATETQALAQRTQQDSTRTVGERLQDTHSWKSELQREMEALAAETNLLLAQKQRLERALDATEVPFSITTDNLQCRERREHPNLVRDHVETELLKEAELIRNIQELLKRTIMQAVSQIRLNREHKETCEMDWSDKMEAYNIDETCGRHHSQSTEVQAHPYSTTFQESASTPETRAKFTQDNLCRAQRERLASANLRVLVDCILRDTSEDLRLQCDAVNLAFGRRCEELEDARYKLHHHLHKTLREITDQEHNVAALKQAIKDKEAPLHVAQTRLYLRSHRPNMELCRDAAQFRLLSEVEELNMSLTALREKLLEAEQSLRNLEDIHMSLEKDIAAMTNSLFIDRQKCMAHRTRYPTILQLAGYQ

Variants of: B1
Conditions: with hsfy1_human HSFY1, Q96LI6

Row | Variant | effect of a mutation on the interaction
1 | D53N | with no effect

Variants of: B2
Conditions: with goga2_human GOLGA2, Q08379

Row | Variant | effect of a mutation on the interaction
2 | R177S | with no effect

Variants of: B3
Conditions: with banp_human BANP

Row | Variant | effect of a mutation on the interaction
3 | R177Q | with no effect

Variants of: B4
Conditions: with tle5_human TLE5, Q08117

Row | Variant | effect of a mutation on the interaction
4 | G36C | with no effect

Variants of: B5
Conditions: with atg5_human ATG5, Q9H1Y0
Chain of atg5_human ATG5, Q9H1Y0 (Q9H1Y0 whole entry): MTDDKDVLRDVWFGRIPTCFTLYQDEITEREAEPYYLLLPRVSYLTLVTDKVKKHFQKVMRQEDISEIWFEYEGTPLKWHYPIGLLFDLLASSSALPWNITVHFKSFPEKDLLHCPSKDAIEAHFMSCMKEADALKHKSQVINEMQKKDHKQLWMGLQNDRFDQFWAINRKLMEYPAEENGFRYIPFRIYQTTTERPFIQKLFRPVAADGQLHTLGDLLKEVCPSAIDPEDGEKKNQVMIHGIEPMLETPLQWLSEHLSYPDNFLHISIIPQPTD

Row | Variant | effect of a mutation on the interaction
5 | D403N | with no effect
6 | M374T | with no effect
